Assay results taken from paper PMC7888922.
pKd: −log10 of the molar value.

Target: sACE2_(2).v2.4-IgG1 (human) (UniProt Q9BYF1)
Experiment: BLI

With “SARS-CoV-2 RBD-Y449K (8his-tagged) (from UniProt P0DTC2 333-529) (domain or fragment)” as the substance, how does the pKd read?
The pKd was 9.05.

What about the koff of the same substance?
Its koff is 0.004 s⁻¹.

What about the kon of the same substance?
The kon was 4.3e+06 M⁻¹ s⁻¹.

“SARS-CoV-2 RBD-N501Y (8his-tagged) (from UniProt P0DTC2 333-529) (domain or fragment)” was tested. Which pKd did it give?
Its pKd is over 10.00.

What about the koff of the same substance?
Its koff is 0.00011 s⁻¹.

And the kon?
Its kon is 360000 M⁻¹ s⁻¹.
